From article PMC7083852, “Ultrafast in-gel detection by fluorescent super-chelator probes with HisQuick-PAGE” (Communications Biology, 2020)

Target: T1, Thermus thermophilus multidrug-resistance protein A (TmrA), C-terminal His10-tag (Thermus thermophilus, UniProt Q72J05 1-600)
T1 construct: Thermus thermophilus multidrug-resistance protein A (TmrA), subunit of the heterodimeric ABC transporter TmrAB; Produced and purified together with TmrB as the heterodimer TmrAB; also called His10-tagged subunit of TmrAB; not shown: His10, C-terminal, kept
T1 sequence (looked up): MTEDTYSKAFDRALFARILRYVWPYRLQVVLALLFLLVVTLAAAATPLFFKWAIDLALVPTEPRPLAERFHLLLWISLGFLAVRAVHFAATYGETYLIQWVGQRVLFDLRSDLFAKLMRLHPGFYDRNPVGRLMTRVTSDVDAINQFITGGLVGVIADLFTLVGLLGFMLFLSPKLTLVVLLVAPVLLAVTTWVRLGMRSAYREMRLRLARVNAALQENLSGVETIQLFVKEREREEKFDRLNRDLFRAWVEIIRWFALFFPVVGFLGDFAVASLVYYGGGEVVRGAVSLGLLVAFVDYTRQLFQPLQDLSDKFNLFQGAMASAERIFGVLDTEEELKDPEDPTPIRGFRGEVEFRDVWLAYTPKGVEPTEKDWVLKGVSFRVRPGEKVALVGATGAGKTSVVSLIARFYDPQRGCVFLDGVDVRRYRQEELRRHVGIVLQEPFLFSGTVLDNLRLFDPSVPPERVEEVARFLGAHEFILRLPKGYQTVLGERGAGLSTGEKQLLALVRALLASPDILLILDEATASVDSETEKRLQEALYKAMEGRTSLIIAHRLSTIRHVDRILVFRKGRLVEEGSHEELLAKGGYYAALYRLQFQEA
Assay: native gel or EMSA; blue native PAGE of purified TmrAB (1.3 µg, 500 nM; produced in E. coli and purified as a whole via His10 on TmrA and by SEC) in DDM or reconstituted in MSP1D1 nanodiscs; labelled with tris- or hexaNTA-Alexa647 (450 nM), in-gel fluorescence
Settings: both partners purified

- binding result: binds
B1: Thermus thermophilus multidrug-resistance protein B (TmrB) (natural protein, UniProt Q72J04 1-578, looked up)
chain: MTGRSAAPLLRRLWPYVGRYRWRYLWAVLAGLVSIFFFVLTPYFLRLAVDAVQAGRGFGVYALAIVASAALSGLLSYAMRRLAVVASRQVEYDLRRDLLHHLLTLDRDFYHKHRVGDLMNRLNTDLSAVREMVGPGILMGSRLSFLVLLAFLSMYAVNARLAFYLTLILPGIFLAMRFLLRLIDRRYREAQEVFDRISTLAQEAFSGIRVVKGYALERRMVAWFQDLNRLYVEKSLALARVEGPLHALLGFLMGFAFLTVLWAGGAMVVRGELSVGELVQFNAYLAQLTWPILGLGWVMALYQRGLTSLRRLFELLDEKPAIRDEDPLPLALEDLSGEVRFEGVGLKRDGRWLLRGLTLTIPEGMTLGITGRTGSGKSLLAALVPRLLDPSEGRVYVGGHEARRIPLAVLRKAVGVAPQEPFLFSETILENIAFGLDEVDRERVEWAARLAGIHEEILAFPKGYETVLGERGITLSGGQRQRVALARALAKRPKILILDDALSAVDAETEARILQGLKTVLGKQTTLLISHRTAALRHADWIIVLDGGRIVEEGTHESLLQAGGLYAEMDRLQKEVEA
notes: Thermus thermophilus multidrug-resistance protein B (TmrB), subunit of the heterodimeric ABC transporter TmrAB; Produced and purified together with TmrA as the heterodimer TmrAB; also called subunit of TmrAB
